Results as given in patent publication US20110150870A1 (UNITED STATES OF AMERICA AS REPRESENTED BY TH, published 2011).

B1: KYK-2.0 Fab (Fab, V domains shown)
VH: QVQLVESGGGLVKPGGSLRLSCAASGFTFSSYGMHWVRQAPGKGLEWVAFIRYDGSNKYYADSVKGRFTISRDNSKNTKYLQMNSLRAEDTAVYYCAKDRGLGDGTYFDYWGQGTTVTVSS
VL: QSALTQPASVSGSPGQSITISCSGSSSNIGNNAVNWYQQLPGKAPKLLIYYDDLLPSGVSDRFSGSKSGTSAFLAISGLQSEDEADYYCAAWDDSLNGPVFGGGTKLTVL
notes: Human Fab (lambda) with human constant domains and a C-terminal (His)6 tag, expressed in E. coli from pC3C-His and purified by IMAC
B2: KYK-1.0 Fab (Fab, V domains shown)
VH: EVQLVESGGGVVQPGGSLRLSCAASGFTFSSYGMHWVRQAPGKGLEWVAFIRYDGSNKYYADSVKGRFTISRDNSKNTKYLQMNSLRAEDTAVYYCAKDRFGYYLDYWGQGTLVTVSS
VL: QPVLTQPSSVSVAPGETARIPCGGDDIETKSVHWYQQKPGQAPVLVIYDDDDRPSGIPERFFGSNSGNTATLSISRVEAGDEADYYCQVWDDNNDEWVFGGGTQLTVL
notes: Human Fab with human constant domains (lambda light chain) and a C-terminal (His)6 tag, expressed in E. coli from pC3C-His and purified by IMAC

Target: T1, tetanus toxoid (UniProt P04958 2-1315)
T1 construct: also called TT
T1 sequence (P04958 2-457 limits assumed, chain 1 of 2): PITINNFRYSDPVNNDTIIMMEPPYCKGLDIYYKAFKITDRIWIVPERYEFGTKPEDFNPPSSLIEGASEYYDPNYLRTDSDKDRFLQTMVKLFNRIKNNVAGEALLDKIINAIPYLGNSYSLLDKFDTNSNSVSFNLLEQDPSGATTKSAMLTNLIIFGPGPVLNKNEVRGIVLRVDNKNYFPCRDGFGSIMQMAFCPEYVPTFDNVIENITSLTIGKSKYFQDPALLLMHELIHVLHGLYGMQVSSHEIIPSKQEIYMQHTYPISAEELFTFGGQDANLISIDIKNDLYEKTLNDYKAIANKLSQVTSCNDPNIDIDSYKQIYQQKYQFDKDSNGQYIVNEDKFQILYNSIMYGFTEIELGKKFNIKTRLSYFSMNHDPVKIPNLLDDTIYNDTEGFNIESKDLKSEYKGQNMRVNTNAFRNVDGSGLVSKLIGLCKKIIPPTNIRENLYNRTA
T1 sequence (P04958 458-1315 limits assumed, chain 2 of 2): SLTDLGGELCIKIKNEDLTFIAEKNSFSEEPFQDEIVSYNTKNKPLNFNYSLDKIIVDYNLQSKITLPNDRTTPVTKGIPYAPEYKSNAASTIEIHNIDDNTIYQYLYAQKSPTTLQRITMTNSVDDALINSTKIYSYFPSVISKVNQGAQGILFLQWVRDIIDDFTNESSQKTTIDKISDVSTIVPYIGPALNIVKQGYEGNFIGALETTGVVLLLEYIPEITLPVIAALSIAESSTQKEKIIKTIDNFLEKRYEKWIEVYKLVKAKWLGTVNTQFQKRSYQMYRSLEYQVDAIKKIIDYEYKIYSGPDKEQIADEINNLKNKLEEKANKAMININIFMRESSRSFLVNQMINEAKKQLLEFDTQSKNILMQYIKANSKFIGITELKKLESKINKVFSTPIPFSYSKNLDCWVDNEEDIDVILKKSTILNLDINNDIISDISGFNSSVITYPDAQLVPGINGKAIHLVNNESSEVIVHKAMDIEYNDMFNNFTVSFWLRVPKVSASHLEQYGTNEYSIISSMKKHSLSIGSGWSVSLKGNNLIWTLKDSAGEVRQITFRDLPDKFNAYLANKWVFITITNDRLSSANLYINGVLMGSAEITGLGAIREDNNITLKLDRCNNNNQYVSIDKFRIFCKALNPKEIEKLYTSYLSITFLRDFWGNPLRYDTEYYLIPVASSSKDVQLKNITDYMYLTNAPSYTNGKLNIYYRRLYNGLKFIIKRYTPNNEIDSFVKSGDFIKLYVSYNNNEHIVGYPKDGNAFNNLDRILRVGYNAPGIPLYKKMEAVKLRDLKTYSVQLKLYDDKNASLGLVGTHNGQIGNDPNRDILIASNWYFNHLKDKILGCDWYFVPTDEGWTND
Assay: ELISA, 100 ng protein coated per well, anti-human Fab-HRP detection

Binder	binding result
B1	no binding
B2	no binding
